Assay results taken from article PMC2570039 (Molecular cell, 2008).

B1: Seleno-methionine-substituted Pseudomonas aeruginosa FtsK γ-domain (GGS-742-811) (domain or fragment)
chain: GGSEGSEDDPLYDEAVRFVTESRRASISAVQRKLKIGYNRAARMIEAMEMAGVVTPMNTNGSREVIAPAPVRD
modifications: seleno-methionine-substituted

Legend:
[1] = target: FtsK50C (50 amino acids from FtsKN fused to FtsKC) (E. coli); assay: […]
[2] = target: FtsK50C (50 amino acids from FtsKN fused to FtsKC) (E. coli); assay: SEC
[3] = target: the molecule itself; assay: crystal structure

Molecule | stoichiometry N [1] | stoichiometry N [2] | binding result [3]
FtsK50C (50 amino acids from FtsKN fused to FtsKC) (domain or fragment) | 6 | 6 | –
B1 | – | – | binds
